Test results as given in patent US20200085917A1.

How the values were obtained:
Experiment in all cases: GST pull-down, LC-MS/MS
[1] = molecular target: Slc25a27_IPI:IPI00108998.1 (mouse) (UniProt Q9D6D0)
[2] = molecular target: Ndufa11_IPI:IPI00318645.6 (mouse) (UniProt Q9D8B4)
[3] = molecular target: Lyrm7_IPI:IPI00117832.1 (mouse) (UniProt Q9DA03)
[4] = molecular target: Fabp5_IPI:IPI00114162.3 (mouse) (UniProt Q05816)
[5] = molecular target: Cisd3_IPI:IPI00345740.4 (mouse) (UniProt B1AR13)
[6] = molecular target: Nubpl_IPI:IPI00317709.1 (mouse) (UniProt Q9CWD8)
[7] = molecular target: Actg1_IPI:IPI00136929.1 (mouse) (UniProt P63260)
[8] = molecular target: Chchd3_IPI:IPI00133562.1 (mouse) (UniProt Q9CRB9)
[9] = molecular target: Hsd17b10_IPI:IPI00320847.1 (mouse) (UniProt O08756)
[10] = molecular target: Mthfd1l_IPI:IPI00228113.5 (mouse) (UniProt Q3V3R1)
[11] = molecular target: Asrgl1_IPI:IPI00223875.1 (mouse) (UniProt Q8C0M9)
[12] = molecular target: Oxa1l_IPI:IPI00308001.1 (mouse) (UniProt Q8BGA9)
[13] = molecular target: Arf2_IPI:IPI00135730.1 (mouse) (UniProt Q8BSL7)
[14] = molecular target: Uqcrb_IPI:IPI00132347.1 (mouse) (UniProt Q9D855)
[15] = molecular target: Dsp_IPI:IPI00553419.3 (mouse) (UniProt E9Q557)
[16] = molecular target: Ppt1_IPI:IPI00331318.2 (mouse) (UniProt O88531)
[17] = molecular target: Rdh14_IPI:IPI00112377.1 (mouse) (UniProt Q9ERI6)
[18] = molecular target: Rhot1_IPI:IPI00123186.4 (mouse) (UniProt Q8BG51)
[19] = molecular target: Nsf_IPI:IPI00656325.2 (mouse) (UniProt P46460)
[20] = molecular target: Rtn1_IPI:IPI00395193.1 (mouse) (UniProt Q8K0T0)
[21] = molecular target: Hsdl1_IPI:IPI00225301.1 (mouse) (UniProt Q8BTX9)
[22] = molecular target: Hspa5_IPI:IPI00319992.1 (mouse) (UniProt P20029)
[23] = molecular target: Gm561_IPI:IPI00344567.1 (mouse)
[24] = molecular target: Dsg1c_IPI:IPI00331259.3 (mouse) (UniProt Q7TSF0)
[25] = molecular target: Tpi1_IPI:IPI00467833.6 (mouse) (UniProt P17751)
[26] = molecular target: Hagh_IPI:IPI00115866.2 (mouse) (UniProt Q99KB8)
[27] = molecular target: Echs1_IPI:IPI00454049.4 (mouse) (UniProt Q8BH95)
[28] = molecular target: Ywhaz_IPI:IPI00116498.1 (mouse) (UniProt P63101)
[29] = molecular target: Stoml2_IPI:IPI00115117.1 (mouse) (UniProt Q99JB2)
[30] = molecular target: Mtch1_IPI:IPI00137173.1 (mouse) (UniProt Q791T5)
[31] = molecular target: Uqcrq_IPI:IPI00224210.5 (mouse) (UniProt Q9CQ69)
[32] = molecular target: Nup210l_IPI:IPI00356451.5 (mouse) (UniProt Q9D2F7)
[33] = molecular target: Prdx3_IPI:IPI00116192.1 (mouse) (UniProt P20108)

Sequence of GST-Httex1-97Q (P08515 1-218, tags or fused parts left off): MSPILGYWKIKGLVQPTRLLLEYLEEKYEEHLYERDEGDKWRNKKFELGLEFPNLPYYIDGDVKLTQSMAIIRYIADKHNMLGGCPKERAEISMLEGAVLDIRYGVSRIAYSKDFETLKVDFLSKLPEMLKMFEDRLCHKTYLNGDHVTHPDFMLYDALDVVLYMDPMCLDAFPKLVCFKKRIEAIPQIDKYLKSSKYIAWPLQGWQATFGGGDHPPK
Sequence of Cisd3_IPI:IPI00345740.4 (mouse) (B1AR13 whole entry): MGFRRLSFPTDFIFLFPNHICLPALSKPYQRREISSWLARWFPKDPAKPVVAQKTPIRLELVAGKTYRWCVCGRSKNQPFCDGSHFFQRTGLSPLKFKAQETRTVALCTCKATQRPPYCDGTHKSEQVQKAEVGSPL
Sequence of Dsg1c_IPI:IPI00331259.3 (mouse) (Q7TSF0 50-911 limits assumed): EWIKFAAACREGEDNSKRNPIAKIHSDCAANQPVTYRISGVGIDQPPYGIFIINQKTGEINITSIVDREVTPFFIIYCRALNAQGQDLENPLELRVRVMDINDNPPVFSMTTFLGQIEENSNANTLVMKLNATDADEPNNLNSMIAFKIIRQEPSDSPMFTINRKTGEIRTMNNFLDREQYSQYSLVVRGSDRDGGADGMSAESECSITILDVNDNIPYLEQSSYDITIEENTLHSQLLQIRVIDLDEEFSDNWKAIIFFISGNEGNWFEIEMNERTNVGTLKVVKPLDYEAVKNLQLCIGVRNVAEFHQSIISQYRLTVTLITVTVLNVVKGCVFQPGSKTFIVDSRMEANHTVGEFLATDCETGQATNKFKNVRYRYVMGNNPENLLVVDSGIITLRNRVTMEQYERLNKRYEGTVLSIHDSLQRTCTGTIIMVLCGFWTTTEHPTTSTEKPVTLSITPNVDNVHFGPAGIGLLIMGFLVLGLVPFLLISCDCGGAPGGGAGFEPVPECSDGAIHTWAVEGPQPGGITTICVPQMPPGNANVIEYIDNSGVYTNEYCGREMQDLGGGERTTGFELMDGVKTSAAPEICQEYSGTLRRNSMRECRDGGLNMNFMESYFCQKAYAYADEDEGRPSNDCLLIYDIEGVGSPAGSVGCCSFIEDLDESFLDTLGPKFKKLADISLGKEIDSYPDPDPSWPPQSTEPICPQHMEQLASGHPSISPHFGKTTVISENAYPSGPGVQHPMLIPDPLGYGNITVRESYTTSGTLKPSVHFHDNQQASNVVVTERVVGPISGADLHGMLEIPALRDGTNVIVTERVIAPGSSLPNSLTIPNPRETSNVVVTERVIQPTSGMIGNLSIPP
Sequence of Ppt1_IPI:IPI00331318.2 (mouse) (O88531 28-306 limits assumed): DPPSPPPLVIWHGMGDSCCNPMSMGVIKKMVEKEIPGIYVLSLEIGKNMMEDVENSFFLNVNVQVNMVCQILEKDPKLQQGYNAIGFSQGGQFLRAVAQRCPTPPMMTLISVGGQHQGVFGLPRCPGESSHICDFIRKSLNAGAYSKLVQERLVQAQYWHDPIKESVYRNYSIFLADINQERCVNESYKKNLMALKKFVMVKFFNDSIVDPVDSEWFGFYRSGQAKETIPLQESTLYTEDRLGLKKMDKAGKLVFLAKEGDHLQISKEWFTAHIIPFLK
Sequence of Mthfd1l_IPI:IPI00228113.5 (mouse) (Q3V3R1 32-977 limits assumed): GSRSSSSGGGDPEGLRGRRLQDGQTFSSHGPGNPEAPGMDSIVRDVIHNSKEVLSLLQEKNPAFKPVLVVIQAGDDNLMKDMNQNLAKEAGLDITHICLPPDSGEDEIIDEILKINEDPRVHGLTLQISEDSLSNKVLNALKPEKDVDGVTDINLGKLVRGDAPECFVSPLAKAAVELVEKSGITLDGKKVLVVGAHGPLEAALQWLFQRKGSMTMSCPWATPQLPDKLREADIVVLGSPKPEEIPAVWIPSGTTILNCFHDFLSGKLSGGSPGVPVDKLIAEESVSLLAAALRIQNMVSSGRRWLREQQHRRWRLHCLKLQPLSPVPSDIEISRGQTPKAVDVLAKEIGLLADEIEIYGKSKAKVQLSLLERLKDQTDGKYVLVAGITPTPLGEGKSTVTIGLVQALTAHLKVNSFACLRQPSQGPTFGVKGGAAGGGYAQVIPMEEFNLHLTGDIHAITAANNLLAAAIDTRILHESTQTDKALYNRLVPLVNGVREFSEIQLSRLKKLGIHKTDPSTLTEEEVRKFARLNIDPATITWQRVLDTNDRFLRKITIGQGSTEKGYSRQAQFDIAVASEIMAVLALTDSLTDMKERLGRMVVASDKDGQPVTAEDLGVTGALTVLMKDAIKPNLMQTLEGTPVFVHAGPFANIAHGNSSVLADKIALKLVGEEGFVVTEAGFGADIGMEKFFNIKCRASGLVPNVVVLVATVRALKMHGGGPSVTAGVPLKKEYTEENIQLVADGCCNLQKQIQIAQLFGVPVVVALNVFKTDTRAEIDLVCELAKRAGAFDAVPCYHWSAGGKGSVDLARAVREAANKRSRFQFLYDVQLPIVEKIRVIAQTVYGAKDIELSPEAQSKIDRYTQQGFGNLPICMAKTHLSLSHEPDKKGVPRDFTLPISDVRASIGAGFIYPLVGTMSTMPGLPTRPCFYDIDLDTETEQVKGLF
Sequence of Echs1_IPI:IPI00454049.4 (mouse) (Q8BH95 28-290 limits assumed): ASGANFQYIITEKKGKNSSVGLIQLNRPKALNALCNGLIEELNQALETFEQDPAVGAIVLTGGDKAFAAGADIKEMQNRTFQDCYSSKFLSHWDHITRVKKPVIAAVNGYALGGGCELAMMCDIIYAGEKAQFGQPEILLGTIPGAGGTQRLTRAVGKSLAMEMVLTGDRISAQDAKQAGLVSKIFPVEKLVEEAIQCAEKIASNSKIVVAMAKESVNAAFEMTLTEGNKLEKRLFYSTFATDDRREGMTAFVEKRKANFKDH
Sequence of Uqcrq_IPI:IPI00224210.5 (mouse) (Q9CQ69 whole entry): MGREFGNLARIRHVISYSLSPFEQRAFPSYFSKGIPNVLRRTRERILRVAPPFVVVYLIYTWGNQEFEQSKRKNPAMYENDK
Sequence of Fabp5_IPI:IPI00114162.3 (mouse) (Q05816 2-135 limits assumed): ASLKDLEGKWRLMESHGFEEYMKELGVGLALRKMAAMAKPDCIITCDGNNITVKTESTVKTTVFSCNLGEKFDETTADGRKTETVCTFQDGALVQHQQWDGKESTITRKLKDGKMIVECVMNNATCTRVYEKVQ
Sequence of Nsf_IPI:IPI00656325.2 (mouse) (P46460 whole entry): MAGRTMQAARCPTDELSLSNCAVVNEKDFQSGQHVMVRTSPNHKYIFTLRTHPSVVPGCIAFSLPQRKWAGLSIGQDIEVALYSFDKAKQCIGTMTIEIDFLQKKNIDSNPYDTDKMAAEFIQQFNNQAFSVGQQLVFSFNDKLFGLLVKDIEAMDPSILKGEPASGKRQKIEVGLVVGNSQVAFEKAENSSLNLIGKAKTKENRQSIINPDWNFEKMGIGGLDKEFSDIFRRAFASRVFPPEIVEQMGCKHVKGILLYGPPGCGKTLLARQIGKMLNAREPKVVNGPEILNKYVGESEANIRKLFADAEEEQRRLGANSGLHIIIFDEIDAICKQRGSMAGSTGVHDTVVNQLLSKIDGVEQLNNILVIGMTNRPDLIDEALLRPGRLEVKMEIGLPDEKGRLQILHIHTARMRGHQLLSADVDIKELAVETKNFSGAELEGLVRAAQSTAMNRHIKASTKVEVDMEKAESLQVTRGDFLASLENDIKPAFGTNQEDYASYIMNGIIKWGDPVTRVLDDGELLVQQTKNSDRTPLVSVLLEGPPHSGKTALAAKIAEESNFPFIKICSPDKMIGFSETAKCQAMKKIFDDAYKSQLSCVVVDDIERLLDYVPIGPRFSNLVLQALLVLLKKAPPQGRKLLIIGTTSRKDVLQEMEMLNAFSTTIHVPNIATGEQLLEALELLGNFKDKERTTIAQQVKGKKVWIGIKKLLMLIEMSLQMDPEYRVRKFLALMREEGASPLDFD
Sequence of Arf2_IPI:IPI00135730.1 (mouse) (Q8BSL7 2-181 limits assumed): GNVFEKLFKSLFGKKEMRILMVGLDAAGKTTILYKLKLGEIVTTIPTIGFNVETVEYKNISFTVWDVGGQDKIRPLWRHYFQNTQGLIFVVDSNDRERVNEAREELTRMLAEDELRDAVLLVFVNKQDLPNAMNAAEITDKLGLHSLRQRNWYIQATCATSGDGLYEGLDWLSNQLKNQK
Sequence of Hsdl1_IPI:IPI00225301.1 (mouse) (Q8BTX9 2-330 limits assumed): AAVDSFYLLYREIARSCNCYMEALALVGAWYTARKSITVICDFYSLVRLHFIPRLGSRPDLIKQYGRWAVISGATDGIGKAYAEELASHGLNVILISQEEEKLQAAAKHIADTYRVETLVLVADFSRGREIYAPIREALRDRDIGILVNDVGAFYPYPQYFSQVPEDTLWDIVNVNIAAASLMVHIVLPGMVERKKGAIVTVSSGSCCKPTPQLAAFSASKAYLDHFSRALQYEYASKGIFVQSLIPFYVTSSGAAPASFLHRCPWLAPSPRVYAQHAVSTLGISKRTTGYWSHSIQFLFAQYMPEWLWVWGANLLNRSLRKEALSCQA
Sequence of Mtch1_IPI:IPI00137173.1 (mouse) (Q791T5 whole entry): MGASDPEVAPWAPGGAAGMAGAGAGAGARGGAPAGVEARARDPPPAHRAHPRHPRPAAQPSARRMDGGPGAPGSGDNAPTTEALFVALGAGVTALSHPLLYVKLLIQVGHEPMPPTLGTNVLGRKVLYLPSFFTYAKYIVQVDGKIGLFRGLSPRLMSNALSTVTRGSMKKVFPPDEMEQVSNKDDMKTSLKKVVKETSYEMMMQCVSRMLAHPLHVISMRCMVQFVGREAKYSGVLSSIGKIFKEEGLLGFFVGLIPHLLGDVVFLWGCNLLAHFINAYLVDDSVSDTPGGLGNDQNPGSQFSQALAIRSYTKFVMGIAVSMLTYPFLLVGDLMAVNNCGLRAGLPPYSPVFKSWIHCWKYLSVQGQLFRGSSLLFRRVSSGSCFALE
Sequence of Nubpl_IPI:IPI00317709.1 (mouse) (Q9CWD8 39-319 limits assumed): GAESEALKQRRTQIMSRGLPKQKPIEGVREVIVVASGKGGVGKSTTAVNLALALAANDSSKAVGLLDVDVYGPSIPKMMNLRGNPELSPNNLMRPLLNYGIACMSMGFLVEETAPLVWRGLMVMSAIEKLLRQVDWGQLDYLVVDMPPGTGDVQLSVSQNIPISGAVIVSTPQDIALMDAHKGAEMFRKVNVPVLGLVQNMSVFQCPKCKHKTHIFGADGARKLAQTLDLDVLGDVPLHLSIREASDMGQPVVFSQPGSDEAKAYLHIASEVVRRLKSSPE

## GST-Httex1-97Q (from UniProt P08515 1-218; P42858 1-88)
[1]
  No. of total peptides: 2 peptides
  No. of unique peptides: 2 peptides
[2]
  No. of total peptides: 1 peptides
  No. of unique peptides: 1 peptides
[3]
  No. of total peptides: 1 peptides
  No. of unique peptides: 1 peptides
[4]
  No. of total peptides: 1 peptides
  No. of unique peptides: 1 peptides
[5]
  No. of total peptides: 1 peptides
  No. of unique peptides: 1 peptides
[6]
  No. of total peptides: 1 peptides
  No. of unique peptides: 1 peptides
[7]
  No. of total peptides: 1 peptides
  No. of unique peptides: 1 peptides
[8]
  No. of total peptides: 2 peptides
  No. of unique peptides: 2 peptides
[9]
  No. of total peptides: 1 peptides
  No. of unique peptides: 1 peptides
[10]
  No. of total peptides: 2 peptides
  No. of unique peptides: 2 peptides
[11]
  No. of total peptides: 1 peptides
  No. of unique peptides: 1 peptides
[12]
  No. of total peptides: 1 peptides
  No. of unique peptides: 1 peptides
[13]
  No. of total peptides: 3 peptides
  No. of unique peptides: 3 peptides
[14]
  No. of total peptides: 1 peptides
  No. of unique peptides: 1 peptides
[15]
  No. of total peptides: 4 peptides
  No. of unique peptides: 4 peptides
[16]
  No. of total peptides: 1 peptides
  No. of unique peptides: 1 peptides
[17]
  No. of total peptides: 1 peptides
  No. of unique peptides: 1 peptides
[18]
  No. of total peptides: 1 peptides
  No. of unique peptides: 1 peptides
[19]
  No. of total peptides: 1 peptides
  No. of unique peptides: 1 peptides
[20]
  No. of total peptides: 1 peptides
  No. of unique peptides: 1 peptides
[21]
  No. of total peptides: 2 peptides
  No. of unique peptides: 2 peptides
[22]
  No. of total peptides: 1 peptides
  No. of unique peptides: 1 peptides
[23]
  No. of total peptides: 2 peptides
  No. of unique peptides: 2 peptides
[24]
  No. of total peptides: 1 peptides
  No. of unique peptides: 1 peptides
[25]
  No. of total peptides: 1 peptides
  No. of unique peptides: 1 peptides
[26]
  No. of total peptides: 2 peptides
  No. of unique peptides: 2 peptides
[27]
  No. of total peptides: 5 peptides
  No. of unique peptides: 5 peptides
[28]
  No. of total peptides: 1 peptides
  No. of unique peptides: 1 peptides
[29]
  No. of total peptides: 1 peptides
  No. of unique peptides: 1 peptides
[30]
  No. of total peptides: 3 peptides
  No. of unique peptides: 3 peptides
[31]
  No. of total peptides: 1 peptides
  No. of unique peptides: 1 peptides
[32]
  No. of total peptides: 1 peptides
  No. of unique peptides: 1 peptides
[33]
  No. of total peptides: 3 peptides
  No. of unique peptides: 3 peptides
